# Data published in the nanobody polyreactivity screen of Harvey et al. (2022).
# Assay: yeast display, Sf9 membrane polyspecificity reagent, FACS + sequencing; frameworks hold sequencing errors
# How it was run: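 Synthetic nanobody libraries on Saccharomyces cerevisiae BJ5465 were galactose-induced for 36–48 hours, stained 1 hour at 4 °C with 10% biotinylated, detergent-solubilized Sf9 membrane reagent and enriched on streptavidin microbeads. FACS then separated cells into low and high (top ~1%) gates by anti-HA (expression) and streptavidin (reagent binding) fluorescence. Genes were colony-PCR amplified, MiSeq 2 × 250 sequenced and CDR-length filtered. A clone's polyreactivity label is that of its gate of origin.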
row,Sequence,polyreactivity (PSR sort gate)
1,QVQLVESGGGLVQAAGSLRLSCAASGITSRFYVMGWYRQAPGKERESVAAISTRGTSTYYADSVKGRLPISRDNAKNTVYLQMNSLKPEDTAVYYCAAVGGYPYQYPYGSWGQGSQVTVSS,high polyreactivity
2,QVQLVESGGGLVQAAGSLRLSCAASGRIFEIYAMGWYRQAPGKERELVAGITSVGSTNYADSVKGRFTISRDNAKNTVYLQMNSLKPVDTAVYYCAADTSVHSEVDYCGQGTQVTVSS,low polyreactivity
3,QVQLVESGGGLVQAAGSLRLSCAASGRIFKLYAMGWYRQAPGKDRELVAGITASGGNTYYADSVKGRFTISRDNAKNTVYLLMNSLKPEDTAVYYCNADRYNKYWYDYWGQGTQVTVSS,high polyreactivity
4,QVQLVESGGGLVQAAGSLRLSCAASGSIFDPNVMGWYRQAPGKERELVATISSDGTTTYADSVKGRFTISRDNAKNTVYLQMNSLKPEDTAVYYCATEWDIDPRRSVGYPIGYGYWGQGTQVTVSS,low polyreactivity
5,QVQLVESGGGLVQAAGSLRLSCAASGSIFSTYAMGWYRQAPGKERELVAAINRGTSTNYADSVKGRFTISRDNAKNTVYLQMNSLKPEDTAVYYCAAYYRGRYGPRRSEYWGQGTQVTVSS,high polyreactivity
6,QVQLVESGGGLVQAAGSLRLSCAASVIIFGLYTMGWYRQAPGKERELVAAISDSGGRTYYADSVKGRFTISLDNAKNTVFLQMNSLKPEDTAVYYCAAEFWYVWEYNYWGQGTQVTVSS,high polyreactivity
7,QVQLVESGGGLVQAAGSLRLSSAASGSIFDANANGWYRQPPGKERELVAAITSGGSTYYADSVKGRFTISRVNAKNTVYLQMNSLKPEDTAVYYCAAQYYDYKTTYDYWGKGTQVTVSS,high polyreactivity
8,QVQLVESGGGLVQAEGRLRLSCAASGRIFPHYAMGWYRQAPGKERELVAAISRSGVSTYYADSVKGRFTISRDIAKNTVYLQMNSLKPEDTAVYYCASRSYILGWRYDYWGQGTQVTVSS,high polyreactivity
9,QVQLVESGGGLVQAEGSLRLSCAASGRTSVLYAMGWNRQAPGKEREFVAAITWNSGSTYYADSVKGRFTISRDNAKNTVYIQMTRLKPEDTAVYYCNADYYFSSYRSTYDYWGQGTQVTVSS,low polyreactivity
10,QVQLVESGGGLVQAGAILRLICAASGRIFYRYAMGWYRQAPGKERELVAAISSGGGRTYYADSVKGRFTLSRDNAKNTVYLQMNSLKPEDTAVYYCAASGNSYEQTGGYWGQGTQVTVSS,high polyreactivity
11,QVQLVESGGGLVQAGASLRLSCAASGFISYYYAMGWYRQAPGKERELVAAITKSGGSTYYADSVKGRFTISRDNAKNTVYLQMNSLKREDTAVYYCAAVRSTRNSTSRLYGYWGQGTQVTVSS,low polyreactivity
12,QVQLVESGGGLVQAGASLRLSCAASGGIFAYYAMGWYRQAPGKERELVAAINRSGGSTRYADSVKGRFTNSRDNAKNTVFLQMNSLKPEETAVYYCATKRSTGYYWGQGTQVTVSS,high polyreactivity
13,QVQLVESGGGLVQAGASLRLSCAASGGILRQNTMGWYRQAPGKERELVAAISSSGGRTYYADSVKGRFTISRDNAKNTVYLQMNSLKPEDTAVYYCNVPAKRYPYYIRQSTVSPGNYWGQGTKVTVSS,high polyreactivity
14,QVQLVESGGGLVQAGASLRLSCAASGIIVHEYAMGWYRQAPGKERELVASISWNDGSTYADSVKGRFTISRDNAKITVYLQMNCLKPEDTAVYYCAADYPYYPFSSIYDYWGQGTQVTVSS,low polyreactivity
15,QVQLVESGGGLVQAGASLRLSCAASGITFDPNAMGWYRQAPGKERELVAAISTRGGSTYYADSVKGRFTISRDNAKNTVYLQMNSLKPEETAVYYCNALRTGRWFDYWGQGTQVTVSS,high polyreactivity
16,QVQLVESGGGLVQAGASLRLSCAASGNTFDVYAMGWYREAPGKERELVAAISRRGGSTSYADSVKGRFTISRDNAKNTFYFHMNSLKPEDTAVYYCNTDPGKYTPFDYLGQGTQVTVSS,high polyreactivity
17,QVQLVESGGGLVQAGASLRLSCAASGRIYPVYTMGWYRQAPGKERELVAAITSSGGSTYYADSVKGSFTISRDNAKNTVYLQMNSLKPEDTAVYDCAKRAGWAYYYWGQGTQVTVSS,high polyreactivity
18,QVQLVESGGGLVQAGASLRLSCAASGRTFVGYAMGWYRQAPGKERELVAAISKSSGSTYYADSVKVRFTISRDNAKNTVYLQMNSLKPEDTAVYYCNAARRQCNRYTYDYWGQGTLVTVSS,high polyreactivity
19,QVQLVESGGGLVQAGASLRLSCAASGRTLGYYAMGWSRQEPGKERELVAAISRSGGSTYYADSVKGRFTISRDNAKNTVYLQINSLKPEDTAVYYCAATYGPSRYRYDYWGQGTQVTVSS,high polyreactivity
20,QVQLVESGGGLVQAGASLRLSCAASGSIFAAYTMGWYRQAPGTERELVAAISVSTVSTYYADSVKGRFTISRDNAKNTVFLQMNSLKAEVTAVYYCNADATDSYTEKDEHDSWGQGTQLTVSS,low polyreactivity
21,QVQLVESGGGLVQAGASLRLSCAASGSIFKDYAMGWYRQAPWKERDLLAAITSRTSTTYADSVKGRFTISRDNAKNTVYLQMNSLKPEDTAVYYCAVEDLGSEGWGWYKEMDYWGQGTQVTVSS,low polyreactivity
22,QVQLVESGGGLVQAGASLRLSCAASGSIFRGNAMGWYRQAPGKERQLVAAITRSGGRTYYADSVKGRFTISRDNAKNTVYLQMISMKPEDTAVYYCAAVSSYSRYRRTYYYWGHGTQVTVSS,high polyreactivity

row,Sequence,polyreactivity (PSR sort gate)
1,QVQLVESGGGLVQAGASLRLSCAASGSTFDQYVMGWYRQAPCKERELVAAISRRGGSTYYADSVKGRFTISRDNEKNTVYLQMNSLQPEDTAVYYCAAPSYYRYDYWGQGTQVTVSS,high polyreactivity
2,QVQLVESGGGLVQAGASLRLSCAASGSTFPVYAMGWYRQAPGKERELVAAITGSGARTYYADSVKVRFTISRDNAKNTVYLQMNSLKPEDTAVYYCAKRTVIAVYGYPYRYGMNYWGQGTKVTVSS,high polyreactivity
3,QVQLVESGGGLVQAGASLRLSCSPSGRTFYYYAMGWYRPAPGKEREWVAAISQSGGSTYYADSVKGRFTISRDNAKKTVFLQMNSLKPEDTAVYYCKAYYGFGHRIYDFWGQGTQVTVSS,high polyreactivity
4,QVQLVESGGGLVQAGASLRLSSAASGSTFSRYAMGWYRQAPGKEREFVADITFRTSSTNYADSVKGRFTISRDNAKNTVYLQMNSLKPEDTAVYDCAADVIFTWLAYSTEYDYWGQGSQVTVSS,low polyreactivity
5,QVQLVESGGGLVQAGCILRLSCDASGRTFAPYAMGWYRQAPGKAWELVAAITNGGSPSYADSVKGRFTISRDNAKNTVYLEMNSLKREDTAVFYCAADIVSSTDYPFEYWGQGTQVTVSS,low polyreactivity
6,QVQLVESGGGLVQAGCRLRLSCAASGFIFCYNAMGLYRQAPGKERELVAAITTAGSTNYADSVKGRFTISRDNAKNTVYVQMNSLKPEDTAVYYCNKVQLRNRYPYRYGFGDVGYWGQGTQVTVSS,low polyreactivity
7,QVQLVESGGGLVQAGCRLRLSCAASGININAMGWYRQAPGKERELVAAISRGGSTYYADSVKGRFTISRDNAKNTVYLQMNSLKPEDTAVYYCAKLIGRWRLYHTFVKGDYWGQGTQVTVSS,high polyreactivity
8,QVQLVESGGGLVQAGCSILLSCAASGRIFDNYAMGWSRQAPGKERELVAASRYSDDATDYADSVKGRFTISRDNAKNTVYLQMNSLIPEDPAVYYCAADVKRYGWEYGYWGQGTQVTVSS,low polyreactivity
9,QVQLVESGGGLVQAGCSLGISCAASGSTVRGNAMGWYRQAPGKEREFVAAITVSGGSTYYADSVKGRFTLSRDNAKINVYVEMNSLKPEDNAVYYCAASVYKGWPTHYDYWGQGTQVTVSS,high polyreactivity
10,QVQLVESGGGLVQAGCSLLLICAASGRTFCFNTMGWYRQAPGKERELVASISGSGGRTYFADSVKGRFTISRDNEKNTVYFQMNSLKPEDTAVYYCAARRYSRDYDYWGQGTQVTVSS,high polyreactivity
11,QVQLVESGGGLVQAGCSLRCSCPDSGGIFTRYVMGWYRPAPGKEREMVAAISSRGGSTYYADSVKGRFTISRDNAKNTVYLQMNSLKPEDTAVYYSAAEQGRTSYRYYYWGQGTQVTVSS,high polyreactivity
12,QVQLVESGGGLVQAGCSLRISCSASGRTFIGYAMGSYRQAPGKERELVAAICRSGGSTYYADSVKGRFTISRDNAKNTVYLQMNSLKPEDTAVYYCAKQRRDDNGGYWGQATQVTVSS,high polyreactivity
13,QVQLVESGGGLVQAGCSLRLSCAAPGFTLKRYAMGWYRQAPGKERELVAAISRTGGSTYHADSVKGRFTITRDNAKNTVYLQMNSLKPEVTAVYYCAAATSPGIYDHWGQGTQLTVSS,high polyreactivity
14,QVQLVESGGGLVQAGCSLRLSCAASGATPQNAMGWYRQAPGKERELVAAISKRGGSTYYADSVKGRFTISRDNAKNTVYLQMISLKPEDTAVYYCAKSGRNYYDDDYWGQGTQVTVSS,high polyreactivity
15,QVQLVESGGGLVQAGCSLRLSCAASGFIFLTNGMGWYRQAPGTERELVAVITSSTGSTSYADSVKGRFTISRDIAKNTVYLQMNSLKPEDTAVYYCDDSTGVSWYYPSGSLDYWGQGTQVNVSS,low polyreactivity
16,QVQLVESGGGLVQAGCSLRLSCAASGFTFGSNEMGWYRPAPGKLRELVAAINYSGVRTYYADSVKGRFTISRDKAMNNVYLQMKSLKPEETAVDFCAKTRSKPISFDYWGQGTQVTVSS,high polyreactivity
17,QVQLVESGGGLVQAGCSLRLSCAASGFTFQVYTMGSYRPAPGKERELVARISRRGGSTYYADSVKGRFTISRDNAKNTVYLQMNSLKPEDTAVYYCAADWYASSYRTYTFDYWGQGTQVTVSS,high polyreactivity
18,QVQLVESGGGLVQAGCSLRLSCAASGFTFYPYAMGWYRQAPGKERELVAAITRGGSTYYADSVKGRFTISRDNEKNTVYLQMNSLTPEDTAVYYCNAYWQGYGYDYWGQGTQVTVSS,low polyreactivity
19,QVQLVESGGGLVQAGCSLRLSCAASGFTFYQNVMGWYRQAPGKERELVASINRRGGSTYYADSVKGRFTISRDNAMNTVYLQKNSLKPEDTAVYYCAARTYRFYTRQLDYWGQGTQVTVSS,high polyreactivity
20,QVQLVESGGGLVQAGCSLRLSCAASGFTFYYNAMGWYRQAPGKERDLVAAISISGASTYYADSVKGRFTISRDNAKNTVYLQMNSLKPEDTAVFYCAKRTKGYTYHHEYGYWGQGTQVTVSS,low polyreactivity
21,QVQLVESGGGLVQAGCSLRLSCAASGITFVPYAIGWYRQAPGKDRELVAAITGGGSTNYADSVKGRFTISRDNAKNTVYLQMNSLNQEDTAVYYCAKHAYGYYYSRSDYWGQGTQVTVSS,low polyreactivity
